In US20260217833A1 (APTEVO RESEARCH AND DEVELOPMENT, published 2026):
Residue numbers refer to the chain shown, from its start.

B1: CD4001049 (bispecific antibody)
scFv-Fc-scFv chain: DIVMSQSPSSLAVSVGEKVTMSCKSSQSLLFSVNQKNYLAWYQQKPGQSPKLLIYWASTRESGVPDRFTGSGSGTDFTLTIGSVKAEDLAVYYCQHYYSYPWTFGGGTKLEIKGGGGSGGGGSGGGGSGGGGSQVQLQQSGAELMNPGASVRISCKATGYTFSTSWIEWIKQRPGHGLEWIGEILPGSGSTNYNEKFKGKATFTADTSSNTAYMQLSSLTFEDSAVYYCARGDDGSYVRWYFDVWGAGTTVTVSSEPKSSDKTHTCPPCPAPPAAAPSVFLFPPKPKDTLMISRTPEVTCVVVDVSHEDPEVKFNWYVDGVEVHNAKTKPREEQYNSTYRVVSVLTVLHQDWLNGKEYKCAVSNKALPAPIEKTISKAKGQPREPQVYTLPPSRDELTKNQVSLTCLVKGFYPSDIAVEWESNGQPENNYKTTPPVLDSDGSFFLYSKLTVDKSRWQQGNVFSCSVMHEALHNHYTQKSLSLSPGGGGSPSEVQLVESGGGLVKPGGSLRLSCAASGFTFSDYGMAWVRQAPGKGLEWVAFITSLAYIIYYADSVKGRFTISRDNAKNSLYLQMNSLRAEDTAVYYCARNYGSSPYYFDYWGQGTLVTVSSGGGGSGGGGSGGGGSGGGGSDIQMTQSPSSLSASVGDRVTITCRASQDINKFLSWYQQKPGKAPKLLIHYTSSLQPGVPSRFSGSGSGTDFTLTISSLQPEDFATYYCLQYDNLYTFGQGTKLEIK
notes: also called CD40_1D5 x hFc x PDL_5F9
B2: CD4001047 (bispecific antibody)
scFv-Fc-scFv chain: DIVMTQSHKFMSTSVGDRVSITCKASQDVNTAVAWYQQKPGQSPKLLIYSASYRYTGVPDRFTGSGSGTDFTFTISSVQAEDLAVYYCQQHYSTPWTFGGGTKLEIKGGGGSGGGGSGGGGSGGGGSQVQLQQSGAELAKPGASVKMSCKASGYAFTTYWMHWVKQRPGQGLEWIGYINPTTGYTDYNQKFKDKATLTADKSSSTAYMQLSSLTSEDSAVYYCARWGLPPFAYWGQGTLVTVSAEPKSSDKTHTCPPCPAPPAAAPSVFLFPPKPKDTLMISRTPEVTCVVVDVSHEDPEVKFNWYVDGVEVHNAKTKPREEQYNSTYRVVSVLTVLHQDWLNGKEYKCAVSNKALPAPIEKTISKAKGQPREPQVYTLPPSRDELTKNQVSLTCLVKGFYPSDIAVEWESNGQPENNYKTTPPVLDSDGSFFLYSKLTVDKSRWQQGNVFSCSVMHEALHNHYTQKSLSLSPGGGGSPSEVQLVESGGGLVKPGGSLRLSCAASGFTFSDYGMAWVRQAPGKGLEWVAFITSLAYIIYYADSVKGRFTISRDNAKNSLYLQMNSLRAEDTAVYYCARNYGSSPYYFDYWGQGTLVTVSSGGGGSGGGGSGGGGSGGGGSDIQMTQSPSSLSASVGDRVTITCRASQDINKFLSWYQQKPGKAPKLLIHYTSSLQPGVPSRFSGSGSGTDFTLTISSLQPEDFATYYCLQYDNLYTFGQGTKLEIK
notes: also called CD40_2H7 x hFc x PDL_5F9
B3: CD4001070 (bispecific antibody)
Fc-Knob x PDL_5F9: EPKSSDKTHTCPPCPAPPAAAPSVFLFPPKPKDTLMISRTPEVTCVVVDVSHEDPEVKFNWYVDGVEVHNAKTKPREEQYNSTYRVVSVLTVLHQDWLNGKEYKCAVSNKALPAPIEKTISKAKGQPREPQVYTLPPSRDELTKNQVSLWCLVKGFYPSDIAVEWESNGQPENNYKTTPPVLDSDGSFFLYSKLTVDKSRWQQGNVFSCSVMHEALHNHYTQKSLSLSPGGGGSPSEVQLVESGGGLVKPGGSLRLSCAASGFTFSDYGMAWVRQAPGKGLEWVAFITSLAYIIYYADSVKGRFTISRDNAKNSLYLQMNSLRAEDTAVYYCARNYGSSPYYFDYWGQGTLVTVSSGGGGSGGGGSGGGGSGGGGSDIQMTQSPSSLSASVGDRVTITCRASQDINKFLSWYQQKPGKAPKLLIHYTSSLQPGVPSRFSGSGSGTDFTLTISSLQPEDFATYYCLQYDNLYTFGQGTKLEIK
CD40_2H7 x Fc-Hole x PDL_5F9: B2 scFv-Fc-scFv chain with T394S, L396A, Y435V, H463R, Y464F
B4: CD4001073 (bispecific antibody)
CD40_2H7 x Fc-Knob: DIVMTQSHKFMSTSVGDRVSITCKASQDVNTAVAWYQQKPGQSPKLLIYSASYRYTGVPDRFTGSGSGTDFTFTISSVQAEDLAVYYCQQHYSTPWTFGGGTKLEIKGGGGSGGGGSGGGGSGGGGSQVQLQQSGAELAKPGASVKMSCKASGYAFTTYWMHWVKQRPGQGLEWIGYINPTTGYTDYNQKFKDKATLTADKSSSTAYMQLSSLTSEDSAVYYCARWGLPPFAYWGQGTLVTVSAEPKSSDKTHTCPPCPAPPAAAPSVFLFPPKPKDTLMISRTPEVTCVVVDVSHEDPEVKFNWYVDGVEVHNAKTKPREEQYNSTYRVVSVLTVLHQDWLNGKEYKCAVSNKALPAPIEKTISKAKGQPREPQVYTLPPSRDELTKNQVSLWCLVKGFYPSDIAVEWESNGQPENNYKTTPPVLDSDGSFFLYSKLTVDKSRWQQGNVFSCSVMHEALHNHYTQKSLSLSPG
CD40_2H7 x Fc-Hole x PDL_5F9: B2 scFv-Fc-scFv chain with T394S, L396A, Y435V, H463R, Y464F
B5: CD4001079 (bispecific antibody)
Fc-Knob x CD40_2H7: EPKSSDKTHTCPPCPAPPAAAPSVFLFPPKPKDTLMISRTPEVTCVVVDVSHEDPEVKFNWYVDGVEVHNAKTKPREEQYNSTYRVVSVLTVLHQDWLNGKEYKCAVSNKALPAPIEKTISKAKGQPREPQVYTLPPSRDELTKNQVSLWCLVKGFYPSDIAVEWESNGQPENNYKTTPPVLDSDGSFFLYSKLTVDKSRWQQGNVFSCSVMHEALHNHYTQKSLSLSPGGGGSPSDIVMTQSHKFMSTSVGDRVSITCKASQDVNTAVAWYQQKPGQSPKLLIYSASYRYTGVPDRFTGSGSGTDFTFTISSVQAEDLAVYYCQQHYSTPWTFGGGTKLEIKGGGGSGGGGSGGGGSGGGGSQVQLQQSGAELAKPGASVKMSCKASGYAFTTYWMHWVKQRPGQGLEWIGYINPTTGYTDYNQKFKDKATLTADKSSSTAYMQLSSLTSEDSAVYYCARWGLPPFAYWGQGTLVTVSA
PDL_5F9 x Fc-Hole x CD40_2H7: EVQLVESGGGLVKPGGSLRLSCAASGFTFSDYGMAWVRQAPGKGLEWVAFITSLAYIIYYADSVKGRFTISRDNAKNSLYLQMNSLRAEDTAVYYCARNYGSSPYYFDYWGQGTLVTVSSGGGGSGGGGSGGGGSGGGGSDIQMTQSPSSLSASVGDRVTITCRASQDINKFLSWYQQKPGKAPKLLIHYTSSLQPGVPSRFSGSGSGTDFTLTISSLQPEDFATYYCLQYDNLYTFGQGTKLEIKEPKSSDKTHTCPPCPAPPAAAPSVFLFPPKPKDTLMISRTPEVTCVVVDVSHEDPEVKFNWYVDGVEVHNAKTKPREEQYNSTYRVVSVLTVLHQDWLNGKEYKCAVSNKALPAPIEKTISKAKGQPREPQVYTLPPSRDELTKNQVSLSCAVKGFYPSDIAVEWESNGQPENNYKTTPPVLDSDGSFFLVSKLTVDKSRWQQGNVFSCSVMHEALHNRFTQKSLSLSPGGGGSPSDIVMTQSHKFMSTSVGDRVSITCKASQDVNTAVAWYQQKPGQSPKLLIYSASYRYTGVPDRFTGSGSGTDFTFTISSVQAEDLAVYYCQQHYSTPWTFGGGTKLEIKGGGGSGGGGSGGGGSGGGGSQVQLQQSGAELAKPGASVKMSCKASGYAFTTYWMHWVKQRPGQGLEWIGYINPTTGYTDYNQKFKDKATLTADKSSSTAYMQLSSLTSEDSAVYYCARWGLPPFAYWGQGTLVTVSA
B6: CD4001064 (PDL_5F9 x hFc x CD40_2H7) (bispecific antibody)
chain: B5 PDL_5F9 x Fc-Hole x CD40_2H7 with S396T, A398L, V437Y, R465H, F466Y
notes: ADAPTIR format, anti-PD-L1 scFv on N-terminus, anti-CD40 scFv on C-terminus; also called CD4001064 (2H7)
B7: CD4001205 (Fc fusion)
scFv: DIQMTQSPSSVSASVGDRVTITCRSSQSLLFSVNQKNYLAWYQQKPGKAPKLLIYWASTRESGVPDRFSGSGSGTDFTLTISSLQPEDFATYYCQHYYSYPWTFGQGTKVEIKGGGGSGGGGSGGGGSGGGGSQVQLVQSGAEVKKPGSSVKVSCKASGYTFSTSWISWVRQAPGQGLEWMGGILPGSGSTNYNEKFKGKVTITADESTSTAYMELSSLRSEDTAVYYCARGDDGSYVRWYFDHWGQGTLVTVSS
notes: humanized 1D5 variant; not shown: wildtype human IgG1 Fc and its linker to the scFv
B8: CD4001207 (Fc fusion)
scFv: B7 scFv with S168E, V170I, G183S, N194A
notes: as for B7
B9: CD4001206 (Fc fusion)
scFv: B7 scFv with S168E, V170I, G183S, N194A, E195Q, K198Q, K200R, E207T
notes: as for B7

Each binder was assayed against T1, Human PD-L1 full-length (human, UniProt Q9NZQ7 19-290) (assay: flow cytometry, CHOK1SV/human PD-L1 cells).
T1 construct: also called PDL01021; CHOK1SV/huPDL1
T1 sequence (Q9NZQ7 19-290): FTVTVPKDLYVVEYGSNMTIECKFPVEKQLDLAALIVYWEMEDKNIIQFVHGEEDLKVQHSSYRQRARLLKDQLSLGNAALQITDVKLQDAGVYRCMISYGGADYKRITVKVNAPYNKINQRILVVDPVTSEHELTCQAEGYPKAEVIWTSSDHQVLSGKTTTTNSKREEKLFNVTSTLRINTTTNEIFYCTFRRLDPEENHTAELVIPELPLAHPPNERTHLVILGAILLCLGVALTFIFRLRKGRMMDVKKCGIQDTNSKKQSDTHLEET

Binding result, binds:
B1
B2
B3
B4
B5
B6

Each binder was assayed against T2, human CD40 full-length (human, UniProt P25942 21-277) (assay: flow cytometry, CHOK1SV/human CD40 cells).
T2 construct: Also used for CD40 of Daudi cells, of CD40-expressing HEK293 cells and of the BPS CD40/NFkB HEK293 reporter cells where the row says so; also called CD4001012; CHOK1SV/CD40
T2 sequence (P25942 21-277): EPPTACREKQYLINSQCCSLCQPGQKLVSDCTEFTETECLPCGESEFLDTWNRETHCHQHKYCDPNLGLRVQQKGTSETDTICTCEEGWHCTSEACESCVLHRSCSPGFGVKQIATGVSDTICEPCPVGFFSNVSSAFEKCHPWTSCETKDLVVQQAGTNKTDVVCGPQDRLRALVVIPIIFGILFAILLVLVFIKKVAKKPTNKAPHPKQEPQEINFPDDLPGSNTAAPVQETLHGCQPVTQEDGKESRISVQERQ

Binding result, binds:
B7
B8
B9
